The target of this experiment is T1, human CD38 (Homo sapiens, UniProt P28907).
T1 construct: CD38, human; Used for both the SPR and the cryo-EM complex; probably a soluble extracellular form
The experiment can be described thus: SPR; Biacore 8 K. To be noted: both partners purified. (In general: Surface plasmon resonance follows binding to a sensor surface in real time, without labels.)

B1: daratumumab (antibody, V domains shown)
VH: EVQLLESGGGLVQPGGSLRLSCAVSGFTFNSFAMSWVRQAPGKGLEWVSAISGSGGGTYYADSVKGRFTISRDNSKNTLYLQMNSLRAEDTAVYFCAKDKILWFGEPVFDYWGQGTLVTVSS
VL: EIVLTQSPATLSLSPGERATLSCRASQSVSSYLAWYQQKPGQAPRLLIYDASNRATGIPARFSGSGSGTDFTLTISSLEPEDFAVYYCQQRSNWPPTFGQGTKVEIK
notes: heavy chain of daratumumab; light chain of daratumumab; Marketed anti-CD38 mAb used as a comparator
In the case of B1, the affinity, expressed as Kd, was 3.84 nM.
